Test results as given in patent US20220177587A1, “METHODS AND USES OF VARIANT CD80 FUSION PROTEINS AND RELATED CONSTRUCTS” (Alpine Immune Sciences, Inc., priority 2018, published 2022).
Substitutions are numbered along the chain they refer to. Names may count otherwise. Values belong to the molecule of their own block, whether it stands above or below them.

What was measured:
[1] = molecular target: T1, CD28 (Homo sapiens, UniProt P10747); test: Flow binding to Jurkat/IL2 reporter cells (CD28); set-up: host or cells: Jurkat cells expressing an IL-2-luciferase reporter; settings: for CD28 Fold change to WT CD80: MFI at 33.3 nM relative to CD80 WT IgV-Fc
Method in brief: (§1)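 Binding EC50 and PE mean fluorescence intensity derived by flow cytometry using PE-labelled anti-human Fc secondary. Target cells were CTLA4- or PD-L1-transfected CHO lines and CD28-expressing Jurkat/IL2 reporter cells, stained with fusion proteins on ice for 45 min following BSA blocking.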

[2] = molecular target: T1, CD28; test: Jurkat/IL2 + CHO/OKT3 +/- PD-L1 reporter assay: PD-L1-dependent CD28 costimulation; format: cell-based; set-up: host or cells: Jurkat cells expressing an IL-2-luciferase reporter; settings: Jurkat/IL2 + CHO/OKT3/PD-L1, 5.0 nM
Method in brief: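 Readout is relative luminescence from lysed cocultures: test protein given 15 min at room temperature to Jurkat cells before adding CHO artificial APCs displaying OKT3 alone or OKT3 plus PD-L1, then 5 h at 37 °C, 5% CO2.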

[3] = molecular target: huCTLA4 (Homo sapiens, UniProt P16410); test: Flow binding to CHO cells stably expressing CTLA4; set-up: huCTLA4 and huPD-L1, full-length mammalian surface expression constructs were generated; expressed in transfected cells; host or cells: CHO cells, lentiviral transduction, sorted to >98% purity; settings: for CTLA4 MFI at 33.3 nM: CHO cells stably expressing CTLA4; for CTLA4 Fold change to WT CD80: MFI at 33.3 nM relative to CD80 WT IgV-Fc
Chain of huCTLA4 (P16410 36-223): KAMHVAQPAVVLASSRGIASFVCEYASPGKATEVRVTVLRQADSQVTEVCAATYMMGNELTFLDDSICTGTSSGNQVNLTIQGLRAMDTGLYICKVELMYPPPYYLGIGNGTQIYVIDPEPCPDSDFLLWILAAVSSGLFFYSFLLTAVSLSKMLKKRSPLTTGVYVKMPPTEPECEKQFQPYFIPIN
Method in brief: as §1

[4] = molecular target: huPD-L1 (Homo sapiens, UniProt Q9NZQ7); test: Flow binding to CHO cells stably expressing PD-L1; set-up: huCTLA4 and huPD-L1, full-length mammalian surface expression constructs were generated; expressed in transfected cells; host or cells: CHO cells, lentiviral transduction, sorted to >98% purity; settings: Table E23; for PD-L1 MFI at 33.3 nM: CD80 IgV-Fc (inert) at 33.3 nM, CHO cells stably expressing PD-L1; for PD-L1 Fold change to WT CD80: MFI at 33.3 nM relative to CD80 WT IgV-Fc; for Ratio of PDL1:CD28: ratio of MFI at 33.3 nM
Chain of huPD-L1 (Q9NZQ7 19-290): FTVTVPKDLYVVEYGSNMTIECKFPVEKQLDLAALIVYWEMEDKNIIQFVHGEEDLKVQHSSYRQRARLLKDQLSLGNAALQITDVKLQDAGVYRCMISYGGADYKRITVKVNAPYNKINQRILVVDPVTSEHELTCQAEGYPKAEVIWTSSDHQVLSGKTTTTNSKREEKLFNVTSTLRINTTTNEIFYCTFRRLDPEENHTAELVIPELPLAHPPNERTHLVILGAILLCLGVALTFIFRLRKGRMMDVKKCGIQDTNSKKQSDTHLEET
Method in brief: as §1

[5] = Table E10, 33.3 nM, Jurkats (CD28)
[6] = Table E23, CD80 IgV-Fc (inert) at 33.3 nM, Jurkat (CD28)
[7] = Table E23, CD80 IgV-Fc (inert) at 33.3 nM

B3: H18Y/A26P/E35D/M471/V68M/A71G (protein)
chain: VIHVTKEVKEVATLSCGYNVSVEELPQTRIYWQKDKKMVLTMMSGDINIWPEYKNRTIFDITNNLSIMILGLRPSDEGTYECVVLKYEKDAFKREHLAEVTLSVKAD
CD28 MFI at 33.3 nM [1, 6]: 5125
CD28 Fold change to WT CD80 ([1]; Table E23): 50.2
CTLA4 MFI at 33.3 nM [3, 7]: 12156
CTLA4 Fold change to WT CD80 ([3]; Table E23): 8.8
PD-L1 MFI at 33.3 nM [4]: 54482
PD-L1 Fold change to WT CD80 [4]: 330.2
Ratio of PDL1:CD28 [4]: 10.6

B6: H18I/A26P/E35D/M47V/V68M/A71G (protein, UniProt P33681 35-288, looked up, variant H18I A26P E35D M47V V68M A71G)
T-lymphocyte activation …: VIHVTKEVKEVATLSCGINVSVEELPQTRIYWQKDKKMVLTMMSGDVNIWPEYKNRTIFDITNNLSIMILGLRPSDEGTYECVVLKYEKDAFKREHLAEVTLSVKADFPTPSISDFEIPTSNIRRIICSTSGGFPEPHLSWLENGEELNAINTTVSQDPETELYAVSSKLDFNMTTNHSFMCLIKYGHLRVNQTFNWNTTKQEHFPDNLLPSWAITLISVNGIFVICCLTYCFAPRCRERRRNERLRRESVRPV
CD28 MFI at 33.3 nM [1, 6]: 2573
CD28 Fold change to WT CD80 ([1]; Table E23): 25.2
CTLA4 MFI at 33.3 nM [3, 7]: 21923
CTLA4 Fold change to WT CD80 ([3]; Table E23): 15.8
PD-L1 MFI at 33.3 nM [4]: 64919
PD-L1 Fold change to WT CD80 [4]: 393.4
Ratio of PDL1:CD28 [4]: 25.2

B7: H18L/E35D/M47V/V68M/A71G/D90G (protein, UniProt P33681 35-288, looked up, variant H18L E35D M47V V68M A71G D90G)
T-lymphocyte activation …: B6 T-lymphocyte activation … with I18L, P26A, D90G
CD28 MFI at 33.3 nM [1, 6]: 6349
CTLA4 MFI at 33.3 nM [3, 7]: 20280
PD-L1 MFI at 33.3 nM [4]: 64761

B8: H18V/A26G/E35D/M47V/V68M/A71G/D90G (protein, UniProt P33681 35-288, looked up, variant H18V A26G E35D M47V V68M A71G D90G)
T-lymphocyte activation …: B6 T-lymphocyte activation … with I18V, P26G, D90G
CD28 MFI at 33.3 nM [1, 6]: 8189
CTLA4 MFI at 33.3 nM [3, 7]: 25398
PD-L1 MFI at 33.3 nM [4]: 66198

Continued, values first:

CD28 MFI at 33.3 nM [1, 5]: 99.4
Relative Luciferase Units (RLU), CD80 Cone 5.0 nM ([2]; Table E12): 1402 RLU
CTLA4 MFI at 33.3 nM ([3]; Table E10, 33.3 nM): 31230
B1: E35D/M47V/T62S/L85Q (protein)
chain: B3 chain with Y18H, P26A, I47V, T62S, M68V, G71A, L85Q

CD28 MFI at 33.3 nM [1, 5]: 23.7
Relative Luciferase Units (RLU), CD80 Cone 5.0 nM ([2]; Table E12): 466 RLU
CTLA4 MFI at 33.3 nM ([3]; Table E10, 33.3 nM): 23334
B2: E35D/M47V/L85M/R94Q (protein)
chain: B3 chain with Y18H, P26A, I47V, M68V, G71A, L85M, R94Q

CD28 MFI at 33.3 nM [1, 5]: 274
Relative Luciferase Units (RLU), CD80 Cone 5.0 nM ([2]; Table E12): 1176 RLU
CTLA4 MFI at 33.3 nM ([3]; Table E10, 33.3 nM): 28848
B4: E35D/M47V/I61V/L85M (protein)
chain: B3 chain with Y18H, P26A, I47V, I61V, M68V, G71A, L85M

CD28 MFI at 33.3 nM ([1]; Table E11, Jurkats (CD28), 33.3 nM): 201
Relative Luciferase Units (RLU), CD80 Cone 5.0 nM ([2]; Table E13): 1167 RLU
CTLA4 MFI at 33.3 nM ([3]; Table E11, 33.3 nM): 15997
B5: E35D/M47V/V68M/L85M (protein, UniProt P33681 35-288, looked up, variant E35D M47V V68M L85M)
T-lymphocyte activation …: B6 T-lymphocyte activation … with I18H, P26A, G71A, L85M
